Where two headings read alike, the source gives them in different places. Values belong to the binder of their own block, whether it stands above or below them.
Experiments:
[1] = target: the molecule itself; test: DEER
[2] = target: T1, BtuB, Escherichia coli vitamin B12 transporter (wild type) (Escherichia coli, UniProt P06129 21-614); test: continuous-wave EPR lineshape
T1 sequence (looked up): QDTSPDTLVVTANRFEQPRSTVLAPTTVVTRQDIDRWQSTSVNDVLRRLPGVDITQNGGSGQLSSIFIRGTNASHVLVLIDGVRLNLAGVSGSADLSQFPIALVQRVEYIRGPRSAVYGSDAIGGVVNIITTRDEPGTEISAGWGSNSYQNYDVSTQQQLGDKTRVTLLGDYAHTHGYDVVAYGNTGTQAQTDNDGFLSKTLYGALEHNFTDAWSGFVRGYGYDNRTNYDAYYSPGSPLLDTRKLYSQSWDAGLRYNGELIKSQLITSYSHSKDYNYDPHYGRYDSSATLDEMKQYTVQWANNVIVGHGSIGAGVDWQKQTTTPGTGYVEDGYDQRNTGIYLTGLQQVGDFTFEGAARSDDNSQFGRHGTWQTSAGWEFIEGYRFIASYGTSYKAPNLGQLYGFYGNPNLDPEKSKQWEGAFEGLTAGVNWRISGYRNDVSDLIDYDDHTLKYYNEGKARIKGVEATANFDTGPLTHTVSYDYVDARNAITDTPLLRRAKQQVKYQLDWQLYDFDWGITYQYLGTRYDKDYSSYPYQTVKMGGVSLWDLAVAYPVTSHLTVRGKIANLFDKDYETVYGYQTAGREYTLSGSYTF

[3] = target: T1, BtuB, Escherichia coli vitamin B12 …; test: fluorescence polarisation
[4] = target: T2, FhuA, Escherichia coli ferrichrome transporter (Escherichia coli, UniProt P06971 34-747); test: fluorescence polarisation
T2 sequence (looked up): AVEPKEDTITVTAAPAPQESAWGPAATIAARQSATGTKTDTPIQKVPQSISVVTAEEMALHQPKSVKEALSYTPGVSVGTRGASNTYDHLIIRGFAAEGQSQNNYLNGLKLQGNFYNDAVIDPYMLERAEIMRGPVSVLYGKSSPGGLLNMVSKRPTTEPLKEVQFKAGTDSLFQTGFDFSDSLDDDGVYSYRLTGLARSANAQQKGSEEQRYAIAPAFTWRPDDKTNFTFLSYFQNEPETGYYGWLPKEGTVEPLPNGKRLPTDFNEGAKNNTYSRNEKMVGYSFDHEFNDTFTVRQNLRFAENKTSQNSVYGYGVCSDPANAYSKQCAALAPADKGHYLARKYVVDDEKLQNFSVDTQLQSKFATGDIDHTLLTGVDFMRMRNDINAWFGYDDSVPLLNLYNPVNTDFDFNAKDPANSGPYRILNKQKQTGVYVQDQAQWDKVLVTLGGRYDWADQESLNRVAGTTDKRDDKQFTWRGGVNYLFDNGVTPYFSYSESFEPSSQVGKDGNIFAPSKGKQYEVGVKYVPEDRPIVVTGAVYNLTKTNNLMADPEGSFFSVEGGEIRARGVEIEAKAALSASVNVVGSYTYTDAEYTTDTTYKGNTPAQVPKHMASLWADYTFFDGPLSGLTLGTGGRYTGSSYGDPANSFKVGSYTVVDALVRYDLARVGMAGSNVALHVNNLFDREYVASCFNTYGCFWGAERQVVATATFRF

[5] = target: T1, BtuB, Escherichia coli vitamin B12 …; test: fluorescence polarisation; remark: listed apart in the source
[6] = target: T2, FhuA, Escherichia coli ferrichrome …; test: fluorescence polarisation; remark: listed apart in the source
[7] = target: T2, FhuA, Escherichia coli ferrichrome …; test: DEER
[8] = target: T3, FecA, Escherichia coli ferric citrate transporter (Escherichia coli, UniProt P13036 34-774); test: DEER
T3 sequence (looked up): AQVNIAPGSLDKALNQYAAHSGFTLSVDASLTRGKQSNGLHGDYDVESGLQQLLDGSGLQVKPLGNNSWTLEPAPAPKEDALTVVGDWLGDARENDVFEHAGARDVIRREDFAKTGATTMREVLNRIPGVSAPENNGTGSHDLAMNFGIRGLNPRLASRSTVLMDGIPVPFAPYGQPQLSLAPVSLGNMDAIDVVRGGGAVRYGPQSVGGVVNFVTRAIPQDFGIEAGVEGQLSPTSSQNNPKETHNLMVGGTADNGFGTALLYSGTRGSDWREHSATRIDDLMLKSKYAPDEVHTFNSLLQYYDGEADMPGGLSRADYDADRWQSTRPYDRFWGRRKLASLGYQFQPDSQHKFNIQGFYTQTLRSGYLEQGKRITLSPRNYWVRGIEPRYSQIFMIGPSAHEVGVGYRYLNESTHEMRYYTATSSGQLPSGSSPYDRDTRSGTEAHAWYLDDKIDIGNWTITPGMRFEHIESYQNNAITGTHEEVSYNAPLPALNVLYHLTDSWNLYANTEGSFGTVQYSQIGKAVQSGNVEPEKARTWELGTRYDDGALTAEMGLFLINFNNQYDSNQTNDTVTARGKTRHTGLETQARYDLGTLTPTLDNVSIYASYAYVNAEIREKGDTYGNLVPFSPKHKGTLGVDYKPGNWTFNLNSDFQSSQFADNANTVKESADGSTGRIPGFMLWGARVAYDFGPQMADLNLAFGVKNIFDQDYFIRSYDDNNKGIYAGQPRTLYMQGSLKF

B1: TonB_(ΔTMD) I224R1 (spin-labeled) (domain or fragment)
chain: not shown
modifications: R1 spin-label side chain (cysteine derivatized with MTSL) at 224
binding result [1]: binds
binding result [2]: binds

B2: TonB_(ΔTMD) L194C labeled with BODIPY FL (domain or fragment)
chain: not shown
modifications: BODIPY FL N-(2-aminoethyl)maleimide on Cys194 (labeling efficiency ~75%)
Kd [3]: 0.026 µM
Kd [4]: 0.038 µM
Kd [5]: 0.061 µM
Kd [6]: 0.064 µM

Continued, in another order:

binding result [2]: binds
B3: TonB_(ΔTMD) R187R1 (spin-labeled) (domain or fragment)
chain: not shown
modifications: R1 spin-label side chain (cysteine derivatized with MTSL) at 187

binding result [7]: binds
binding result [8]: binds
binding result [2]: binds
B4: TonB_(ΔTMD) E203R1 (spin-labeled) (domain or fragment)
chain: not shown
modifications: R1 spin-label side chain (cysteine derivatized with MTSL) at 203
binding result [1]: binds
